Where two headings read alike, the source gives them in different places.
Key:
monkey NKp46 protein [1] = target: monkey NKp46 protein (monkey); experiment: ELISA on coated monkey NKp46 protein (title 'Cyno NKp46'), HRP anti-human IgG, OD 450 nm
[2] = target: T1, 6506GJ130-1A: Human NKP46 Recombinant Protein (His) (human, UniProt O76036 22-258, limits assumed); experiment: ELISA on coated human NKp46 protein (title 'Human NKp46'), HRP anti-human IgG, OD 450 nm [label printed on D00006]]
T1 construct: also called human NKp46 protein; not shown: His tag
T1 sequence (O76036 22-258 limits assumed): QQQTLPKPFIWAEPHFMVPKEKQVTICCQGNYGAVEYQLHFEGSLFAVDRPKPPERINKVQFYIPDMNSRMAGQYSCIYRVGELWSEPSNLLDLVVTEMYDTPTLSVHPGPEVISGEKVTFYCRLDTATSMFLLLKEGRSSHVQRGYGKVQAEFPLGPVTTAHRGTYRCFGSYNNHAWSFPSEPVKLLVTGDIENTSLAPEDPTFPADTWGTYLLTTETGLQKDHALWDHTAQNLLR

monkey NKp46 protein [3] = target: monkey NKp46 protein (monkey); experiment: ELISA on coated monkey NKp46 protein (title 'Cyno NKp46'), HRP anti-human IgG, OD 450 nm; remark: listed apart in the source
Protocol: (§1) Human NKp46 protein and monkey NKp46 protein were each added at a concentration of 0.5 μg/mL to a 96-well plate and reacted for 1 hour at 37° C., followed by three washes with an appropriate volume of washing solution (0.05% Tween20, PBS), and then treated with 150 μL of blocking solution (1% BSA, PBS) for 1 hour at 37° C. After washing three times with an appropriate volume of washing solution (0.05% Tween20, PBS), the wells were treated with 3 serial dilutions of 1 μg/mL of anti-human NKp46 antibody at the maximum concentration and reacted for 1 hour at 37° C. […] The degree of binding between antigen and antibody was detected with 3′,5,5′-tetramethylbenzidine solution. Finally, the reaction was stopped by adding 1M HCl, and the absorbance was measured at 450 nm using an ELISA reader (Thermo Fisher Scientific). Four antibodies (1-2, 1-4-2, 1-8, and 1-10) that specifically bind to human NKp46 and monkey NKp46 were selected by the above two binding tests.

[4] = target: T1, 6506GJ130-1A: Human NKP46 Recombinant …; experiment: ELISA on coated human NKp46 protein, HRP anti-human IgG, OD 450 nm [label printed at foot of D00002]]
Protocol: as §1

monkey NKp46 protein (monkey), sequence (Q95JB9 22-257): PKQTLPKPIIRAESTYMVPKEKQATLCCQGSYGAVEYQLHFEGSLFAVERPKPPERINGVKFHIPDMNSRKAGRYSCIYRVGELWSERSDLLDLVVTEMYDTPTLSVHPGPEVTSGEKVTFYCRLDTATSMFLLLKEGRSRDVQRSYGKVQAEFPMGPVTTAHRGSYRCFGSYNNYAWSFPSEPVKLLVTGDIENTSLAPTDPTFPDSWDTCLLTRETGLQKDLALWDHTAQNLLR

Binder	EC50 (read off the curve) (monkey NKp46 protein [1])	EC50 (read off the curve) [2]	EC50 (read off the curve) (monkey NKp46 protein [3])	EC50 (read off the curve) [4]
32C9F4 (antibody, human IgG4 S228P, kappa, V domains shown, Hybridoma screening; also called 2-2) VH: QVQLQQPGAELVKPGASVKLSCKASGYTFTSYWMHWVKQRPGQGLEWIGMIHPNSGVTKYNEKFKSKATLTVDKSSSTAYMQLSSLTSEDSAVYFCAGDGRFAYWGQGTLVTVSA VL: DIQMTQSPSSLSASLGERVSLTCRASQDIGSSLNWLQQEPDGTIKRLIYATSSLDSGVPKRFSGSRSGSDYSLTISSLESEDFVDYYCLQYASSPWTFGGGTKLEIKR	~30 pM	~50 pM		
28E10B12 (antibody, human IgG4 S228P, kappa, V domains shown, Hybridoma screening; also called 2-3) VH: QVQLQQPGAELVKPGASVKLSCKASGYTFTSYWMNWVKQRPGQGLEWIGMIHPNSDITNYNEKFKSQATLTVDKSSSTAYMQLSSLTSEDSAVYYCARHGRFDYWGQGTTLTVSS VL: DIQMTQSPSSLSASLGERVTLTCRASQDIGSSLNWLQQEPDGTIKRLIYATSSLDSGVPKRFSGSRSGSDYSLTISSLESEDFVDYYCLQYASSPFTFGSGTKLEIKR	~30 pM	~30 pM		
45A10D5 (antibody, human IgG4 S228P, kappa, V domains shown, Hybridoma screening; also called 2-1) VH: QVQLQQPGAELVKPGASVKLSCKASGYTFTSYWMHWVKQRPGQGLEWIGMIHPNSGSTNYNEKFKSKATLTVDKSSSTAYMQLSSLTSEDSAVYYCVYDGRFAYWGQGTLVTVSA VL: DIQMTQSPSSLSASLGERVSLTCRASQDIGSSLNWLQQEPDGTIKRLIYATSSLDSGVPKRFSGSRSGSDYSLTISSLESEDFVDYYCLQYASSPFTFGSGTKLEIKR	~60 pM	~50 pM		
u6506gj130-1-10 (antibody, human IgG4 S228P, kappa, V domains shown, Beacon screening) VH: QVQLQQPGAELVKPGASVKLSCKASGYIFTSYWMHWVKQRPGQGLEWIGMIHPNSGSTNYNEKFKSKATLTVDKSSSTAYMQLSSLTSEDSAVYYCAREGNWARGYFEYWGQGTTLTVSS VL: DIKMTQSPSSMYASLGERVTITCKASQDINSYLSWFQQKPGKSPKTLIYRANRLVDGVPSRFSGSGSGQDYSLTISSLEYEDVGMYYCLQYDEFPYTFGGGTKLEIKR			~200 pM	~200 pM
u6506gj130-1-2 (antibody, human IgG4 S228P, kappa, V domains shown, Beacon screening) VH: EVQLQQSGPELVKPGASVKISCQASGYTFTDYYLNWVKQSHGKSLEWIGDIDPHNGGTSYNQKFKDKATLTVDKSSSTAYMELRSLTSEDSAVYYCARFPIYYSGSSPMDYWGQGTSVTVSS VL: DIQMTQSPASLSASVGETVTITCRTNENIFSYLAWYQQKQGKSPQLLVYNAKTLAEGVPSRFSGSASGTQFSLKINTLQPEDFGSYYCQHHYGTPYTFGGGTKLEIIR				~200 pM

Source: US20260226158A1 (DE NOVO BIOTHERAPEUTICS, published 2026)
